Experimental data as given in patent publication CN1660912A.
Blank lines part the entries; values can stand above or below the binder they belong to.

Columns and labels:
[1] = target: 白细胞介素-8(IL-8), E.Coli表达的基因重组人体单核细胞来源的IL-8, 72个氨基酸 (human) (UniProt P10145); assay: ELISA, plate coated with 1ug/ml IL-8, antibody 15 ng/ml, replicate 2
GM-CSF = GM-CSF (UniProt P04141); assay: ELISA, cross-reaction (Table 1)
b-FGF = b-FGF (UniProt P09038); assay: ELISA, cross-reaction (Table 1)
IL-16 = IL-16 (UniProt Q14005); assay: ELISA, cross-reaction (Table 1)
[2] = target: 白细胞介素-8(IL-8), E.Coli表达的基因重组人体单核细胞来源的IL-8, 72个氨基酸 (human) (UniProt P10145); assay: ELISA, cross-reaction (Table 1)
IL-7 = target: T1, IL-7 (UniProt P13232); assay: ELISA, cross-reaction (Table 1)
T1 sequence (looked up): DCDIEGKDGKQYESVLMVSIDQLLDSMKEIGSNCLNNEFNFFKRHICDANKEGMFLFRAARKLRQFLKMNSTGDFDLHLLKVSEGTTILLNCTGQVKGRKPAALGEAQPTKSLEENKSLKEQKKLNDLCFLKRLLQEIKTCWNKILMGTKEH

TGF-β = assay: ELISA, cross-reaction (Table 1)
BSA = BSA (UniProt P02769); assay: ELISA, cross-reaction (Table 1)
HSA = HSA (UniProt P02768); assay: ELISA, cross-reaction (Table 1)
TNF-α = TNF-α (UniProt P01375); assay: ELISA, cross-reaction (Table 1)
MCAF = MCAF (UniProt P13500); assay: ELISA, cross-reaction (Table 1)
MCP-3 = MCP-3 (UniProt P80098); assay: ELISA, cross-reaction (Table 1)
EGF = EGF (UniProt P01133); assay: ELISA, cross-reaction (Table 1)
IL-1β = IL-1β (UniProt P01584); assay: ELISA, cross-reaction (Table 1)
M-CSF = target: T2, M-CSF (UniProt P09603); assay: ELISA, cross-reaction (Table 1)
T2 sequence (looked up): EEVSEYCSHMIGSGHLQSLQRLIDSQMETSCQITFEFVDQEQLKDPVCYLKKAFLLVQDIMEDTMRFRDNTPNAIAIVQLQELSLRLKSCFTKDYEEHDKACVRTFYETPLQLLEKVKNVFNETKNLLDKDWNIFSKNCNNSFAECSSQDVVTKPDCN

[3] = target: 白细胞介素-8(IL-8), E.Coli表达的基因重组人体单核细胞来源的IL-8, 72个氨基酸 (human) (UniProt P10145); assay: ELISA, plate coated with 1ug/ml IL-8, antibody 3 ng/ml, replicate 1
[4] = target: 白细胞介素-8(IL-8), E.Coli表达的基因重组人体单核细胞来源的IL-8, 72个氨基酸 (human) (UniProt P10145); assay: ELISA, plate coated with 1ug/ml IL-8, antibody 3 ng/ml, replicate 2
NAP-2 = target: T3, NAP-2 (UniProt P02775); assay: ELISA, cross-reaction with IL-8 homologues (Table 2)
T3 sequence (looked up): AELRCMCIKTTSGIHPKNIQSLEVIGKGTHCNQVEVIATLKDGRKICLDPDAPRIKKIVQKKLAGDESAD

[5] = target: 白细胞介素-8(IL-8), E.Coli表达的基因重组人体单核细胞来源的IL-8, 72个氨基酸 (human) (UniProt P10145); assay: as above
GCP2 = GCP2 (UniProt P80162); assay: as above
GROα = GROα (UniProt P09341); assay: as above
ENA78 = target: T4, ENA78 (UniProt P42830); assay: as above
T4 sequence (looked up): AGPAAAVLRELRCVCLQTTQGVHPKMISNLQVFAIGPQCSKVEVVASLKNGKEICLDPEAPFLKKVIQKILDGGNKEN

PF-4 = target: T5, PF-4 (UniProt P02776); assay: as above
T5 sequence (looked up): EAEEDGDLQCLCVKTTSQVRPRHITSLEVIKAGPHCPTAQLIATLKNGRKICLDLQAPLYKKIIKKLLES

[6] = target: 白细胞介素-8(IL-8), E.Coli表达的基因重组人体单核细胞来源的IL-8, 72个氨基酸 (human) (UniProt P10145); assay: ELISA, plate coated with 1ug/ml IL-8, antibody 30 ng/ml, mean
[7] = target: 白细胞介素-8(IL-8), E.Coli表达的基因重组人体单核细胞来源的IL-8, 72个氨基酸 (human) (UniProt P10145); assay: ELISA, plate coated with 1ug/ml IL-8, antibody 30 ng/ml, replicate 2
[8] = target: 白细胞介素-8(IL-8), E.Coli表达的基因重组人体单核细胞来源的IL-8, 72个氨基酸 (human) (UniProt P10145); assay: cell-based or functional assay
[9] = target: 白细胞介素-8(IL-8), E.Coli表达的基因重组人体单核细胞来源的IL-8, 72个氨基酸 (human) (UniProt P10145); assay: ELISA, plate coated with 1ug/ml IL-8, antibody 15 ng/ml, replicate 1
[10] = target: 白细胞介素-8(IL-8), E.Coli表达的基因重组人体单核细胞来源的IL-8, 72个氨基酸 (human) (UniProt P10145); assay: ELISA, plate coated with 1ug/ml IL-8, antibody 15 ng/ml, mean
[11] = target: 白细胞介素-8(IL-8), E.Coli表达的基因重组人体单核细胞来源的IL-8, 72个氨基酸 (human) (UniProt P10145); assay: ELISA, plate coated with 1ug/ml IL-8, antibody 3 ng/ml, mean
[12] = target: 白细胞介素-8(IL-8), E.Coli表达的基因重组人体单核细胞来源的IL-8, 72个氨基酸 (human) (UniProt P10145); assay: ELISA, plate coated with 1ug/ml IL-8, antibody 30 ng/ml, replicate 1

Chain of UniProt P10145 (P10145 21-99): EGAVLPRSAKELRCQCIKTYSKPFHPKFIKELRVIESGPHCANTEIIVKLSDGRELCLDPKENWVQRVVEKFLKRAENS
Chain of UniProt P01375 (P01375 77-233 limits assumed): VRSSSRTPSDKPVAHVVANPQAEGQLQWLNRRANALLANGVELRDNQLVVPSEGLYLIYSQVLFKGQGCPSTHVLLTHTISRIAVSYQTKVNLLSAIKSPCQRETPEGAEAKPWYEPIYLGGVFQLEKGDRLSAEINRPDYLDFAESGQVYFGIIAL
Chain of UniProt P80162 (P80162 38-114 limits assumed): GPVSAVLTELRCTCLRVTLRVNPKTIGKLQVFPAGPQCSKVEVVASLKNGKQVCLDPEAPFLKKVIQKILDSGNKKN
Chain of UniProt P13500 (P13500 24-99 limits assumed): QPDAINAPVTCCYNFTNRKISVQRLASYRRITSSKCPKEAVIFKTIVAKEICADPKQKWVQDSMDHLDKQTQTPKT
Chain of UniProt P04141 (P04141 18-144 limits assumed): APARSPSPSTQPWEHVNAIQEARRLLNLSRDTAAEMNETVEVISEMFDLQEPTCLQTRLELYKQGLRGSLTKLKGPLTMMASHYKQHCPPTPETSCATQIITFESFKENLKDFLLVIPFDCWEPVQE
Chain of UniProt P09341 (P09341 35-107 limits assumed): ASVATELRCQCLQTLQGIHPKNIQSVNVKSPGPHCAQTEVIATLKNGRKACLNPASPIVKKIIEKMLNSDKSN
Chain of UniProt P02768 (P02768 25-609): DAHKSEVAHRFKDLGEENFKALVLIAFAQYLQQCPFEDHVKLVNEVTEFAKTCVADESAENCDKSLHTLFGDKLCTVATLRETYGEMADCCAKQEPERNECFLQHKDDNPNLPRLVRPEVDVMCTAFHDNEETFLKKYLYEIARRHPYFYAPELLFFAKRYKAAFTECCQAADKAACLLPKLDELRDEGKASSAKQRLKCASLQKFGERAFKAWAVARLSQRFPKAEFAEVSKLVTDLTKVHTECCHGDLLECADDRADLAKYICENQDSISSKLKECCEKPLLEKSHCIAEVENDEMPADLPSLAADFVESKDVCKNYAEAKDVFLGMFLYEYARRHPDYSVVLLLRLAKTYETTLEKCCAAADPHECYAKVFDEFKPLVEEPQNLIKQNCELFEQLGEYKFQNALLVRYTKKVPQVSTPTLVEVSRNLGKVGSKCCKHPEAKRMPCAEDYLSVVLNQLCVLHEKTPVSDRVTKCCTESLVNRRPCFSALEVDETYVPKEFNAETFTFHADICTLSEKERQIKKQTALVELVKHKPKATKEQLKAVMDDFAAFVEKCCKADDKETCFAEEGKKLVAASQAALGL
Chain of UniProt Q14005 (Q14005 1212-1332 limits assumed): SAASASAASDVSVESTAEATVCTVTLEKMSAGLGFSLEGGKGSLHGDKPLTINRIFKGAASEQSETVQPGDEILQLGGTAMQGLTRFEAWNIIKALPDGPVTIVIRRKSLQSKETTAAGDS
Chain of UniProt P01133 (P01133 971-1023 limits assumed): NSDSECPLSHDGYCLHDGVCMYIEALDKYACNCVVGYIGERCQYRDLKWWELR
Chain of UniProt P01584 (P01584 117-269 limits assumed): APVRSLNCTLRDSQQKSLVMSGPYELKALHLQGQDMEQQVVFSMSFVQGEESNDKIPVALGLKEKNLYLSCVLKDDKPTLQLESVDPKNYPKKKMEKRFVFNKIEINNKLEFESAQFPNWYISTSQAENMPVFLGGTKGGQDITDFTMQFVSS
Chain of UniProt P09038 (P09038 143-288 limits assumed): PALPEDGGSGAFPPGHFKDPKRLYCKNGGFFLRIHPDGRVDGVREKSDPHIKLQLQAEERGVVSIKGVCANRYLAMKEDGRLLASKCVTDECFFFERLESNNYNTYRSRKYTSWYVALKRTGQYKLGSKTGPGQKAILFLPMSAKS
Chain of UniProt P02769 (P02769 25-607 limits assumed): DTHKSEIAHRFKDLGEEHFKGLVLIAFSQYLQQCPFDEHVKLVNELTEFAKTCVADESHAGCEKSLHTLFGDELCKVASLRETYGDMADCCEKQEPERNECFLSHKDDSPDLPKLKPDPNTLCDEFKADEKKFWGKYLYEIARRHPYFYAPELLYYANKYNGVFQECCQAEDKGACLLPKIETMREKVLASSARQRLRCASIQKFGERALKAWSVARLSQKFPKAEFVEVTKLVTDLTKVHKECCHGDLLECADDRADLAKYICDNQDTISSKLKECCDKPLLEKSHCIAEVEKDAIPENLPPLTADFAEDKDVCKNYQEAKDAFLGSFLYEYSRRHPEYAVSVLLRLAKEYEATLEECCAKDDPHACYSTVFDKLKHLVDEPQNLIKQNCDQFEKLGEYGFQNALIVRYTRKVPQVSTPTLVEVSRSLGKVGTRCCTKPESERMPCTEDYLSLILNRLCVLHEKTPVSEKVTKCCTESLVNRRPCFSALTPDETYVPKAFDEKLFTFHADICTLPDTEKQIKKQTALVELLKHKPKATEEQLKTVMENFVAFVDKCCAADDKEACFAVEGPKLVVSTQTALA
Chain of UniProt P80098 (P80098 24-99 limits assumed): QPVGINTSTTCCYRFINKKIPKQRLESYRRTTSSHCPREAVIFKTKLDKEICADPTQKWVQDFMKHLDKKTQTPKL

OD 450 [1]: 0.708 OD450
O.D.值 (GM-CSF): 0.037 OD
O.D.值 (b-FGF): 0.027 OD
O.D.值 (IL-16): 0.044 OD
O.D.值 [2]: > 2 OD
O.D.值 (IL-7): 0.06 OD
O.D.值 (TGF-β): 0.021 OD
O.D.值 (BSA): 0.147 OD
O.D.值 (HSA): 0.129 OD
O.D.值 (TNF-α): 0.039 OD
O.D.值 (MCAF): 0.023 OD
O.D.值 (MCP-3): 0.024 OD
O.D.值 (EGF): 0.044 OD
O.D.值 (IL-1β): 0.029 OD
O.D.值 (M-CSF): 0.044 OD
OD 450 [3]: 0.352 OD450
OD 450 [4]: 0.377 OD450
O.D.值 (NAP-2): 0.031 OD
O.D.值 [5]: > 2 OD
O.D.值 (GCP2): 0.088 OD
O.D.值 (GROα): 0.097 OD
O.D.值 (ENA78): 0.073 OD
O.D.值 (PF-4): 0.113 OD
OD 450 平均值 [6]: 1.18 OD450
OD 450 [7]: 1.27 OD450
化学趋向抑制率 (antibody 0.05μg/mL, IL-8 10ng/ml, Ab∶Ag 5∶1) [8]: 17.1%
化学趋向抑制率 (antibody 0.5μg/mL, IL-8 10ng/ml, Ab∶Ag 50∶1) [8]: 83.9%
化学趋向抑制率 (antibody 5μg/mL, IL-8 10ng/ml, Ab∶Ag 500∶1) [8]: 99.8%
化学趋向抑制率 (antibody 50μg/mL, IL-8 10ng/ml, Ab∶Ag 5000∶1) [8]: 118%
抑制率(%) (IL-8 20 ng/ml, antibody 0.1 ug/ml) [8]: 48.9%
抑制率(%) (IL-8 20 ng/ml, antibody 1 ug/ml) [8]: 81.1%
抑制率(%) (IL-8 20 ng/ml, antibody 10 ug/ml) [8]: 91.1%
趋化指数 (IL-8 20 ng/ml, antibody 0.1 ug/ml) [8]: 2.24
趋化指数 (IL-8 20 ng/ml, antibody 1 ug/ml) [8]: 1.46
趋化指数 (IL-8 20 ng/ml, antibody 10 ug/ml) [8]: 1.22
OD 450 [9]: 0.626 OD450
OD 450 平均值 [10]: 0.667 OD450
OD 450 平均值 [11]: 0.365 OD450
OD 450 [12]: 1.09 OD450
B1: 抗IL-8单克隆抗体 克隆6E6(又称I8-60) (antibody, part only; not given: light variable and mouse constant regions, IgG1, V domains shown, part only)
VH: QVKLQQSGGGLVQPGGSLKFSCAASGFDFSRYWMSWVRQAPGKGLEWIGEINPDSTTINYTPSLKDKFIISRDNAKNTLYLQMSKVRSEDTALYYCARLDGYYGYFDYWGQGTTVTVSS

OD 450 [1]: 1.14 OD450
OD 450 [3]: 0.406 OD450
OD 450 [4]: 0.398 OD450
OD 450 平均值 [6]: 1.95 OD450
OD 450 [7]: 2 OD450
抑制率(%) (IL-8 20 ng/ml, antibody 0.1 ug/ml) [8]: 48.2%
抑制率(%) (IL-8 20 ng/ml, antibody 1 ug/ml) [8]: 80.2%
抑制率(%) (IL-8 20 ng/ml, antibody 10 ug/ml) [8]: 75.1%
趋化指数 (IL-8 20 ng/ml, antibody 0.1 ug/ml) [8]: 2.25
趋化指数 (IL-8 20 ng/ml, antibody 1 ug/ml) [8]: 1.48
趋化指数 (IL-8 20 ng/ml, antibody 10 ug/ml) [8]: 1.6
OD 450 [9]: 1.09 OD450
OD 450 平均值 [10]: 1.12 OD450
OD 450 平均值 [11]: 0.402 OD450
OD 450 [12]: 1.9 OD450
B2: 抗IL-8嵌合型抗体 (Chimeric anti-IL8 Ab) (antibody, part only; not given: light variable and human constant regions, not shown: a dimerising Fc or GST)
heavy: QVKLQQSGGGLVQPGGSLKFSCAASGFDFSRYWMSWVRQAPGKGLEWIGEINPDSTTINYTPSLKDKFIISRDNAKNTLYLQMSKVRSEDTALYYCARLDGYYGYFDYWGQGTTVTVSS
